Substrate in the data set: O=C(O)[C@@H](O)[C@H](O)[C@H](O)[C@@H](O)C(=O)O
The experiment in a line: purified protein. Type of data set: biochemical, Oceanobacillus iheyensis. As to conditions: 50 mM Hepes pH 8.0, 5 mM MgCl2.

B1: Ob2843; galactarate dehydratase GalrD-II (Oceanobacillus iheyensis HTE831) (protein)
chain: MKITDLELHAVGIPRHTGFVNKHVIVKIHTDEGLTGIGEMSDFSHLPLYSVDLHDLKQGLLSILLGQNPFDLMKINKELTDNFPETMYYYEKGSFIRNGIDNALHDLCAKYLDISVSDFLGGRVKEKIKVCYPIFRHRFSEEVESNLDVVRQKLEQGFDVFRLYVGKNLDADEEFLSRVKEEFGSRVRIKSYDFSHLLNWKDAHRAIKRLTKYDLGLEMIESPAPRNDFDGLYQLRLKTDYPISEHVWSFKQQQEMIKKDAIDIFNISPVFIGGLTSAKKAAYAAEVASKDVVLGTTQELSVGTAAMAHLGCSLTNINHTSDPTGPELYVGDVVKNRVTYKDGYLYAPDRSVKGLGIELDESLLAKYQVPDLSWDNVTVHQLQDRTADTKS
On to B1, for which the Km (as a rule, the concentration of substrate that gives half-maximal velocity) is 620 ± 380 µM; the kcat (as a rule, the maximal rate divided by the concentration of active sites) is 6.8 ± 1.2 s⁻¹; the kcat/Km (usually the second-order rate constant that governs catalysis at low substrate concentration) was determined as 11000 M⁻¹ s⁻¹.

B2: Ob2843; galactarate dehydratase GalrD-II (Oceanobacillus iheyensis HTE831; Y90F) (protein)
chain: MKITDLELHAVGIPRHTGFVNKHVIVKIHTDEGLTGIGEMSDFSHLPLYSVDLHDLKQGLLSILLGQNPFDLMKINKELTDNFPETMYYFEKGSFIRNGIDNALHDLCAKYLDISVSDFLGGRVKEKIKVCYPIFRHRFSEEVESNLDVVRQKLEQGFDVFRLYVGKNLDADEEFLSRVKEEFGSRVRIKSYDFSHLLNWKDAHRAIKRLTKYDLGLEMIESPAPRNDFDGLYQLRLKTDYPISEHVWSFKQQQEMIKKDAIDIFNISPVFIGGLTSAKKAAYAAEVASKDVVLGTTQELSVGTAAMAHLGCSLTNINHTSDPTGPELYVGDVVKNRVTYKDGYLYAPDRSVKGLGIELDESLLAKYQVPDLSWDNVTVHQLQDRTADTKS
As to B2, the Km was found to be 2000 ± 480 µM, the kcat came to 0.0061 ± 0.006 s⁻¹ and the kcat/Km turned out to be 3.1 M⁻¹ s⁻¹.

The values are drawn from article PMC2787699.
